The results in this text go back to US20230272390A1, “COMPOSITIONS AND METHODS FOR HEMOGLOBIN PRODUCTION” (THE CHILDREN'S HOSPITAL OF PHILADELPHIA, priority 2020, published 2023).

The experiment deals with T1, endogenous ZNF410 (Homo sapiens, UniProt Q86VK4).
T1 construct: endogenous in cells; host or cells: HUDEP-2 (HUDEP-2-Cas9) cells, differentiated
T1 sequence (Q86VK4 1-478): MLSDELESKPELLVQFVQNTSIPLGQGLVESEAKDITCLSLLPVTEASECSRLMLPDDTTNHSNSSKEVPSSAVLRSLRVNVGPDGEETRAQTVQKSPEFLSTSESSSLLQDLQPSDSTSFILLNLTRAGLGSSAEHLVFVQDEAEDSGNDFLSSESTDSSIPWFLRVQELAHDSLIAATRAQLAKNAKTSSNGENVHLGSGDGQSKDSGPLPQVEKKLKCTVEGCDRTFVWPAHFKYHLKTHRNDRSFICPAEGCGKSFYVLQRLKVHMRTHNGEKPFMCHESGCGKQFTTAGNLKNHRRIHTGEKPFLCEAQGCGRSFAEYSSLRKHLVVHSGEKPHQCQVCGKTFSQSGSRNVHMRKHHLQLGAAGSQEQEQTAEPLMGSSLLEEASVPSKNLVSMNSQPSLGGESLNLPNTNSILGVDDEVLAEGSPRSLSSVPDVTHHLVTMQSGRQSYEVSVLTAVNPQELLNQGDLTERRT
Briefly: RT-qPCR in HUDEP-2 cells overexpressing HA-tagged ZNF410 constructs. The format is cell-based. How it is done: HUDEP-2 cells were cultured and differentiated as described (Kurita, et al. (2013) PLoS One 8:e59890). Briefly, StemSpan™ Serum-Free Expansion Medium (SFEM) supplemented with 50 ng/ml human stem cell factor (SCF), 10 μM dexamethasone, 1 μg/ml doxycycline, 3 IU/ml erythropoietin and 1% penicillin/streptomycin was utilized for routine cell maintenance. Cell density was kept at 0.1-1×10^6/ml. HUDEP-2 cells were differentiated for 6-7 days in IMDM supplemented with 50 ng/ml human SCF, 3 IU/ml erythropoietin, 2.5% fetal bovine serum, 250 μg/ml holo-transferrin, 10 ng/ml heparin, 10 μg/ml insulin, 1 μg/ml doxycycline and 1% penicillin/streptomycin.
SgRNAs were cloned into a lentiviral U6-sgRNA-EFS-GFP/mCherry expression vector (LRG, Addgene: #65656) by BsmBI digestion. The ZNF410 cDNA (clone ID: OHu10535), CHD4 cDNA (clone ID: OHu28780) were purchased from GenScript and were sub-cloned into a lentiviral vector pSDM101-IRES-GFP. ZNF410 variants were sub-cloned into pSDM101-IRES-GFP vector. The N-terminal HA tag was introduced by PCR. For EMSA, the ZNF410 full length or different ZF versions were sub-cloned into mammalian expression vector pcDNA3.
Lentivirus was produced as described (Grevet, et al. (2018) Science 361:285-290). Briefly, 10-20 μg of expression vectors, 5-10 μg of pVSVG (pMD2.G) and 7.5-15 μg of psPAX2 package plasmids, and 80 μl of 1 mg/ml polyethylenimine (PEI) were mixed, incubated for 15-20 minutes, and added to HEK293T cells grown in 10 cm plates to above 90% confluence. Media were replaced 6-8 hours post transfection, virus was collected 24 hours and 48 hours post-transfection and pooled. For infection, virus-containing supernatant was mixed with the indicated cell lines with 8 μg/ml polybrene and 10 mM HEPES, and then spun at 2250 rpm for 1.5 hours at room temperature. Infected HUDEP-2 cells were selected for mCherry+ or GFP+ cell sorting at 48 hours post-infection.
Total RNA was purified using the RNeasy® Plus Mini Kit (Qiagen), including an on-column DNAse treatment using RNase-free DNase set (Qiagen) to remove genomic DNA. Reverse transcription was accomplished using iScript™ Supermix (Bio-Rad). qPCR reactions were prepared with Power SYBR® Green (ThermoFisher Scientific). Quantification was performed using the ΔΔCT method.
Overexpression of ZF1-5 but not ZF2-4 should compete with endogenous ZNF410 for chromatin binding, thus acting in a dominant-negative manner. To test this hypothesis, a construct containing HA-tagged ZF1-5 or ZF2-4 driven by the EF1α promoter was introduced via lentiviral infection into HUDEP-2 cells. As control, the expression of full-length HA-tagged ZNF410 was forced. […] Moreover, full-length HA-ZNF410 when overexpressed to similar levels to HA-ZF1-5 also produced similar binding patterns (FIG. 4A). […] Thus, the ZF region is sufficient for chromatin occupancy but insufficient for CHD4 gene activation. […] Finally, the impact of ZNF410 expression on γ-globin levels was also measured.
(In general: Real-time PCR tracks product formation cycle by cycle.)

Setting [1] is: overexpression in HUDEP-2 cells.

B1: ZF1-5: fragment of human ZNF410 comprising five zinc finger domains ZF1-5 (residues 217-366); dominant-negative when overexpressed (protein)
chain: KKLKCTVEGCDRTFVWPAHFKYHLKTHRNDRSFICPAEGCGKSFYVLQRLKVHMRTHNGEKPFMCHESGCGKQFTTAGNLKNHRRIHTGEKPFLCEAQGCGRSFAEYSSLRKHLVVHSGEKPHQCQVCGKTFSQSGSRNVHMRKHHLQLG
modifications: left off: small tags and cut ends
notes: fragment of human ZNF410 comprising five zinc finger domains ZF1-5 (residues 217-366); dominant-negative when overexpressed
Regarding B1, under setting [1], the “effect on expression of the other 6 ZNF410 bound genes” value was “did not impact” and the “reduction of CHD4 mRNA levels compared to control” value is listed as “approximately 70%”. Further, for the setting “overexpression in differentiated HUDEP-2 cells”, the “effect on γ-globin mRNA levels” value was “significant increase”.
